± gives the uncertainty stated by the source.
Assay: protein stability index of a GFP-peptide fusion (yeast GPS) (PSI 1-4); higher = more stable; sorted into four equal gates, so the index is relative within each strain
Procedure, shortened: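 Mid-log yeast cultures in leucine-free medium, carrying a pooled plasmid library, were sorted into four equal gates by their GFP/Cherry fluorescence ratio. Each plasmid expressed Cherry along with GFP fused upstream of a tiled 17-residue yeast protein peptide. Plasmids recovered from each gate were PCR-amplified and Illumina-sequenced, with reads assigned to strains by barcodes. The protein stability index was obtained by summing each gate's read frequency weighted by its gate number.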

Sequence	protein stability index (doa10∆)	protein stability index (pdr5∆)	protein stability index (san1∆)	protein stability index (ubr1∆)
PPLLVYKWTQGINNLSE [PRP8]	3.09 ± 0.12	3.11 ± 0.073	3.29 ± 0.076	3.25 ± 0.098
MDNPRKLSKILRTEYGW [SNU114]	3.11 ± 0.068	2.99 ± 0.081	2.91 ± 0.059	2.94 ± 0.066
EDEDDDDDDDEDEEEEE [QCR6]	3.06 ± 0.049	3.5 ± 0.12	3.4 ± 0.041	3.84 ± 0.17
LPYLSDTCAVSFDAVSD [YJR042W/NUP85]	2.44 ± 0.1	2.63 ± 0.059	2.55 ± 0.078	2.87 ± 0.05
NILWAIYNSASKASMQK [YCS4]	1.66 ± 0.13	2.11 ± 0.13	1.58 ± 0.22	2.18 ± 0.077
SPMGAQPSYNSAIIENA [GAL11]	2.88 ± 0.074	2.96 ± 0.071	2.5 ± 0.1	2.73 ± 0.045
SSIDRGFGRCETRRKTT [RET1]	2.41 ± 0.071	2.38 ± 0.12	2.21 ± 0.13	2.52 ± 0.05
TVPRIVQLLSKSHNAHV [RPN2]	1.91 ± 0.056	1.69 ± 0.044	2.08 ± 0.067	1.98 ± 0.048
RKEPPATVEECVKLTVR [PRE6]	1.45 ± 0.06	1.67 ± 0.074	1.7 ± 0.2	1.43 ± 0.055
QKDKSDTYKRFKYLLGV [ISW2]	1.59 ± 0.05	1.4 ± 0.062	1.4 ± 0.1	1.58 ± 0.048
GQQKIILSKKWGFTNLD [RPL10]	2.68 ± 0.22	–	–	2.29 ± 0.21
PRDVIKGKDFEITAKEV [FAS1]	3.27 ± 0.095	3.41 ± 0.12	3.24 ± 0.07	3.36 ± 0.083
PSQFGMLCTADTPEGEA [RET1]	–	1.7 ± 0.23	2.58 ± 0.22	–
VVIDAFRLIDTGALINN [RPN11]	1.27 ± 0.16	1.78 ± 0.17	–	1.11 ± 0.098
KKFDISNDNLDLISEIL [MED1]	2.77 ± 0.067	2.89 ± 0.058	2.84 ± 0.061	3 ± 0.049
HKVSSQSTNLNRSAKNS [YCS4]	2.24 ± 0.054	2.41 ± 0.05	2.38 ± 0.079	2.32 ± 0.05
DSKNTPNVFDKDSYVRI [YDL088C/ASM4]	3.01 ± 0.12	3.11 ± 0.048	3.06 ± 0.072	3.25 ± 0.051
LSKLCVPVANQFINLAG [QCR7]	1.98 ± 0.059	2.13 ± 0.071	1.81 ± 0.058	1.94 ± 0.033
VRSEMGEPIHKIATRGV [FAS1]	3.14 ± 0.29	3.14 ± 0.28	–	2.95 ± 0.089
RNSKTVREFLEKNYDRK [PRE6]	3.08 ± 0.27	–	–	–
RRRKGISTGGFMSNDGP [SNU114]	1.46 ± 0.086	1.47 ± 0.1	1.18 ± 0.14	1.33 ± 0.063
SSLKESSPDTMKLTDLL [SNF12]	3.09 ± 0.088	3.08 ± 0.083	2.71 ± 0.098	3.1 ± 0.076
ALPRGARTATVSKKWAA [RPL14A]	2.25 ± 0.067	2.23 ± 0.065	1.96 ± 0.1	2.14 ± 0.056
ITHYAVRGGNIEIMGIL [RRI1]	2.85 ± 0.1	2.54 ± 0.097	2.79 ± 0.095	2.25 ± 0.13
AVNSIMALKFVSIKFTN [ECM29]	–	3.12 ± 0.11	2.87 ± 0.13	3.13 ± 0.22

Sequence	protein stability index (doa10∆)	protein stability index (pdr5∆)	protein stability index (san1∆)	protein stability index (ubr1∆)
YESRNVAKRRFEYSKYR [RRP6]	3.16 ± 0.072	3.4 ± 0.087	3.29 ± 0.041	3.3 ± 0.079
KPGQNNRQQKKRRFDPS [RRP6]	2.78 ± 0.089	2.99 ± 0.11	3.21 ± 0.13	2.56 ± 0.08
VEGISEVQARKSKSVSF [RPT5]	3.41 ± 0.068	3.49 ± 0.11	3.41 ± 0.068	3.3 ± 0.069
GTILSSAGDDGKVRLWK [YGL100W/SEH1]	3.27 ± 0.12	3.51 ± 0.1	3.49 ± 0.053	3.38 ± 0.059
TVHKTFEGNVATKAING [PRP8]	2.85 ± 0.08	2.22 ± 0.062	1.85 ± 0.065	2.71 ± 0.062
GVCNHAFHLHCINKWIK [HRT1]	1.77 ± 0.045	2.49 ± 0.04	1.64 ± 0.068	2.16 ± 0.042
ELHKKLVEAAKLLKIPK [YDL116W/NUP84]	2.57 ± 0.13	2.24 ± 0.15	2.33 ± 0.22	2.49 ± 0.1
LSCVKNDTISEDILQGI [NUT1]	2.69 ± 0.067	2.35 ± 0.073	2.53 ± 0.11	3.17 ± 0.076
IQGISKMYSDDTLKDIS [BRN1]	3.24 ± 0.17	3.35 ± 0.15	3.37 ± 0.15	3.05 ± 0.17
PDISRAVINIRDDGKRE [RPO31]	2.78 ± 0.083	2.29 ± 0.07	2.74 ± 0.11	2.77 ± 0.063
IESQNLDLIPHSSSVFK [SRB4]	2.46 ± 0.059	2.9 ± 0.053	2.55 ± 0.067	2.73 ± 0.038
VTDLSGKETIARVTGGM [RPS14B]	3.03 ± 0.087	3.09 ± 0.081	2.79 ± 0.055	2.9 ± 0.061
MSDHSLDKLNCAINSKS [RRP6]	2.49 ± 0.057	2.8 ± 0.047	2.59 ± 0.051	2.83 ± 0.036
LENSSRSPRVVTNALDN [NUT1]	2.85 ± 0.06	2.51 ± 0.058	2.279 ± 0.016	2.74 ± 0.057
WVYKTKGDGMTSAVASI [RPN1]	2.75 ± 0.27	3.14 ± 0.19	2.57 ± 0.23	2.97 ± 0.14
YYGCLENDHERGFFHLN [CSN12]	3.14 ± 0.063	3.24 ± 0.068	3.21 ± 0.047	3.26 ± 0.044
SRGFEVMYNGHTGKKLM [RPB2]	1.97 ± 0.12	3.33 ± 0.25	2.71 ± 0.13	–
MIVYYKDAISFIKEIHK [YCS4]	2.19 ± 0.092	1.84 ± 0.069	2.57 ± 0.11	2.26 ± 0.072
CFCEDHCDKCSVVLTLQ [RPB3]	3.12 ± 0.14	3.15 ± 0.14	2.42 ± 0.19	2.51 ± 0.17
HNSHLSLNYKFTTNKSK [SRP21]	2.46 ± 0.073	2.07 ± 0.052	2.38 ± 0.076	2.41 ± 0.05
AETDYVDPKRLAMVIIK [DSN1]	3.13 ± 0.066	3.35 ± 0.074	3.03 ± 0.056	3.53 ± 0.06
TDPKELYNNAHVYARDL [RPC40]	3.51 ± 0.23	2.94 ± 0.11	2.93 ± 0.13	–
KKRKAGRPRGRPKKVKL [SNF2]	–	3.09 ± 0.12	2.96 ± 0.21	2.9 ± 0.11
TEIENYLLENNQVGTDE [YDL116W/NUP84]	3.11 ± 0.11	2.9 ± 0.082	3.39 ± 0.072	2.84 ± 0.098
SSSSDIIVPDLIELKSD [YML103C/NUP188]	2.71 ± 0.085	3.15 ± 0.059	2.67 ± 0.13	2.7 ± 0.07

Source: the supplement of paper PMC9732359
